Assay results as given in patent US6518401B2, “Tumor necrosis factor stimulated gene 6 (TSG-6) protein” (New York University, priority 1991, dated 2003).

Experiments:
[1] = Binding of TSG-6 protein to hyaluronic acid coupled to Sepharose (Western blot); parameters: species or system bovine
Procedure: To analyze the hyaluronic acid binding properties of the TSG-6 protein, hyaluronic acid was coupled to Sepharose (HA-Sepharose) to be used as a matrix for affinity chromatography.
To couple hyaluronic acid to Sepharose, 100 mg hyaluronic acid from bovine trachea (Sigma Chemicals) was dialyzed extensively against 0.5 M NaCl. Five ml EAH-Sepharose 4 B (Pharmacia) was washed extensively with 0.5 M NaCl and mixed with the hyaluronic acid solution. The pH was adjusted to 4.5 and 40 mg 1-(3-dimethylaminopropyl)-3-ethylcarbodiimide hydrochloride (Aldrich Chem. Co.), dissolved in 1 ml distilled water, was added dropwise under constant stirring. The pH was kept at 4.5 for 1 hr. After constantly stirring the reaction mixture overnight, 200 μl acetic acid were added for another 4 hr to block the remaining amino groups on the EAH-Sepharose. […]
To show the binding of TSG-6 protein to HA-Sepharose but not to a similarly activated and blocked control Sepharose matrix, concentrated serum-free supernatant of GSV-L5 cells was used. […] Thereafter, the supernatants were removed and analyzed by Western blotting with anti-TSG-6 antibody. […] After vigorous shaking and centrifugation the supernatants were removed, dialyzed against Tris buffered saline and analyzed by Western blotting (FIG. 15). […]

[2] = test system: TSG-6 binding protein in serum; assay: TSG-6 binding to carrier protein in sera (120-kDa complex, Western blot); conditions: recombinant human TSG-6 incubated with human, fetal bovine, rabbit, or mouse serum, 37° C.
Procedure: (§1) Analysis of TSG-6 Binding to Carrier Protein. To determine the presence of TSG-6 binding protein, samples to be analyzed were mixed with an equal volume of TSG-6-containing serum-free supernatants of TN-5 B insect cells infected with recombinant Baculovirus and incubated at 37° C. for 30-60 min. (Purified TSG-6 protein was used in some experiments, as indicated.) Thereafter, the mixtures were analyzed for the presence of the 120-kDa complex by Western blotting with purified rabbit antibody to TSG-6 as described earlier (Wisniewski et al, J. Immunol. 151:6593-6601 (1993)). For detection of inter-α-inhibitor (IαI) epitopes by Western blotting, membranes were incubated with a rabbit anti-human IαI antibody (Dako) at a 1:2000 dilution for 1 hr.
Binding of TSG-6 Protein to a Protein Present in Mammalian Sera and in Supernatants of Human HepG-2 Hepatoma Cells. […] Recombinant human TSG-6 protein produced in insect cells migrates somewhat faster than the 35-kDa TSG-6 protein from human cells (Wisniewski et al, J. Immunol. 151:6593-6601 (1993)) possibly due to s different extent of glycosylation. […] When TSG-6 containing culture upernatants were incubate at 37° C. in the presence of fetal bovine serum (lane 3), mouse serum (lane 7), or serum-free culture supernatant of human HepG-2 hepatoma cells (lane 5), an additional 120-kDa band became readily apparent. […]

[3] = biological target: T1, IαI purified from human serum (Homo sapiens, UniProt P02760+P19823); assay: TSG-6/IαI complex formation with purified proteins (SDS-PAGE, Western blot); format: binding
T1 construct: IαI is a complex protein in which the bikunin chain is linked to HC1 and HC2; supposed to determine the cleavage site for the C-terminal propeptide; from tissue; host or cells: human serum
Procedure: Purified recombinant TSG-6 protein (lane 1) and IαI purified from human serum (lane 2) were mixed and incubated for 2 min. (lane 3), 5 min. (lane 4), 10 min. (lane 5), 15 min. (lane 6), 30 min. (lane 7), or for 60 min. (lane 8) at 37° C. or for 60 min. at 0° C. (lane 9). The reaction mixtures were then separated by SDS-PAGE and subjected to Western blot analysis with rabbit anti-TSG-6 serum.
Four micrograms of purified IαI and 3 μg of purified TSG-6 protein were incubated separately for 16 hrs. at 37° C. in the absence or presence of 30 milliunits of chondroitin sulfate ABC lyase. Thereafter, control IαI was mixed with control TSG-6 protein (lane 1), chonroitinase-pretreated IαI was mixed with control TSG-6 (lane 2), and control IαI was reaction mixtured with chondroitinase-pretreated TSG-6 protein (lane 3). The reaction mixtures were incubated for 1 hr. at 37° C. before SDS-PAGE and Western blot analysis with anti-TSG-6 antibody.
as §1
Purification of IαI from Human Serum. IαI purified from human serum, according to Salier et al, Anal Biochem. 109:273-283 (1980), with some modifications. FPLC on Q Sepharose Fast Flow was used instead of DEAE-Sephacel chromatography. Chelating Sepharose Fast Flow was used for zinc chelate chromatography. Phenyl Superose was used for Hydrophobic chromatography and Superdex 200 was used for size-exclusion chromatography instead of Sephacryl-300. The IαI recovered was essentially pure as judged by SDS-PAGE and silver staining.
Rapid Complex Formation between Recombinant TSG-6 Protein and IαI Purified from Human Serum at 37° C. The 120kDa TSG-6/IαI complex formed readily when purified TSG-6 protein and purified IαI were incubated together at 37° C. but not at 0° C. […] This IαI derivative appears to be a by product of the reaction of TSG-6 with IαI. It should be noted that the 120kDa TSG-6/IαI complex is formed by purified TSG-6 and IαI proteins in the apparent absence of other proteins.
Chondroitin Sulfate Associated with IαI Is Required for the Formation of the TSG-6/IαI Complex. […]

[4] = purified TSG-6 protein and purified IαI, 37° C.

T1 sequence (P02760 206-352 limits assumed): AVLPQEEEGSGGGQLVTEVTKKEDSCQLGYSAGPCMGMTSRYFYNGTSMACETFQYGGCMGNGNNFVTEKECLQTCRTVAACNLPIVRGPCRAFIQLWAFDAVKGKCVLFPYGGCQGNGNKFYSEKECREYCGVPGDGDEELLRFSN
T1 sequence (P19823 55-702 limits assumed): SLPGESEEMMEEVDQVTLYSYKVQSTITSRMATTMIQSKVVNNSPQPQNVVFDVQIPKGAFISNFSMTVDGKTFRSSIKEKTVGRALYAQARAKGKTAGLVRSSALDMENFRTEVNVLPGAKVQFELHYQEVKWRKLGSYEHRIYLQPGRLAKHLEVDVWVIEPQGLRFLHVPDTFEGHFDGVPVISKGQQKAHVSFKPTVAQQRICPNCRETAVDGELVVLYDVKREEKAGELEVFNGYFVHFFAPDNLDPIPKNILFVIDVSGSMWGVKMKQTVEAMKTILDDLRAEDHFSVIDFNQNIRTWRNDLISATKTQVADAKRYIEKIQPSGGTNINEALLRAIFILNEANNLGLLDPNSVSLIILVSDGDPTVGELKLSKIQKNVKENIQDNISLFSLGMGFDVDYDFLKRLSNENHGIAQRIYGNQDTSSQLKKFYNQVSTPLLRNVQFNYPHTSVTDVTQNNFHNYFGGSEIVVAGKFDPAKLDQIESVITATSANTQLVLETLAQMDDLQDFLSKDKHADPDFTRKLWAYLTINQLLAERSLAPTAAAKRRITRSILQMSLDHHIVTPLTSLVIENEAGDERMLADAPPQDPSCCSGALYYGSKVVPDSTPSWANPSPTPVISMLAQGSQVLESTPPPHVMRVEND
T1 sequence (P98066 18-277 partner): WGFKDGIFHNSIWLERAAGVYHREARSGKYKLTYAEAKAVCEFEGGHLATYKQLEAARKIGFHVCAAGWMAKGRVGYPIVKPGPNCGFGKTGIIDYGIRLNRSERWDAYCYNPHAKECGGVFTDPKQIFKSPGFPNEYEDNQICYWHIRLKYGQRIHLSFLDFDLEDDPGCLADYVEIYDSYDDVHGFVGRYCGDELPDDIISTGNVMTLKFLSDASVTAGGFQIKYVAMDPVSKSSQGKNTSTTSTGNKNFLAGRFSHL

TSG-6 protein: cytokine-induced protein or glycoprotein, amino acid sequence SEQ ID NO:2; from GSV-L5 cells or Baculovirus-infected insect cells
binding of TSG-6 protein to HA-Sepharose ([1]; concentrated serum-free GSV-L5 culture supernatant, overnight at 4° C., elution with 3 M NaCl): bound virtually all the TSG-6 protein | binding of TSG-6 protein to control Sepharose matrix ([1]; control Sepharose without hyaluronic acid, same procedure): did not bind any detectable TSG-6 protein | complex formation on incubation with serum [2]: readily incorporated into a stable 120 kDa complex | ability to form the TSG-6/IαI complex after pretreatment of the protein with chondroitin sulfate ABC lyase ([3]; preincubated 16 hrs. at 37° C. with chondroitinase, then mixed with the untreated partner protein): little effect | TSG-6/IαI complex formation at 0° C. ([3]; purified TSG-6 protein and purified IαI, 0° C., within 1 hr.): little or no TSG-6/IαI complex was formed | time until TSG-6/IαI complex formation detectable [3, 4]: ≤ 2 min | time until complex formation reaction appeared complete [3, 4]: ≤ 10 min
